Results published in publication PMC7602980 (Biomolecules, 2020).

B1: Cx43CL_(136-158) M147T peptide (peptide)
peptide: KYGIEEHGKVKTRGGLLRTYIIS
notes: connexin43 (Cx43) cytoplasmic loop, residues K136-S158, with the ODDD mutation M147T; ODDD-linked mutation that occurs in patients; No species is named for the synthetic peptides; source: synthetic peptide (LifeTein, 95% purity)
B2: Cx43CL_(136-158) R148Q peptide (peptide)
peptide: KYGIEEHGKVKMQGGLLRTYIIS
notes: connexin43 (Cx43) cytoplasmic loop, residues K136-S158, with the ODDD mutation R148Q; ODDD-linked mutation that occurs in patients; No species is named for the synthetic peptides; source: synthetic peptide (LifeTein, 95% purity)
B3: Cx43CL_(136-158) T154A peptide (peptide)
peptide: KYGIEEHGKVKMRGGLLRAYIIS
notes: connexin43 (Cx43) cytoplasmic loop, residues K136-S158, with the ODDD mutation T154A; ODDD-linked mutation that occurs in patients; No species is named for the synthetic peptides; source: synthetic peptide (LifeTein, 95% purity)

Biological target: T1, calmodulin (UniProt P0DP23 1-149)
T1 construct: calmodulin (CaM); Used 15N-labeled or unlabeled; also called CaM; source: expressed (cloned in pAED4 vector)
Assay: NMR titration; 15N-HSQC; 15N-labeled CaM at a constant concentration (30–100 μM), unlabeled ligand added (7.5 to 400 μM); KD by nonlinear fitting of chemical shift changes, average of at least six curves
Settings: both partners purified

Binding result, binds:
B1
B2
B3
